Assay results as given in PMC3812353.

What was measured:
[1] = biological target: T1, MutS-IAANS (MutS-C42A/M88C) (Thermus aquaticus (printed as T. …, UniProt Q56215 1-811, C42A;M88C)); assay: IAANS fluorescence quenching, equilibrium
T1 sequence: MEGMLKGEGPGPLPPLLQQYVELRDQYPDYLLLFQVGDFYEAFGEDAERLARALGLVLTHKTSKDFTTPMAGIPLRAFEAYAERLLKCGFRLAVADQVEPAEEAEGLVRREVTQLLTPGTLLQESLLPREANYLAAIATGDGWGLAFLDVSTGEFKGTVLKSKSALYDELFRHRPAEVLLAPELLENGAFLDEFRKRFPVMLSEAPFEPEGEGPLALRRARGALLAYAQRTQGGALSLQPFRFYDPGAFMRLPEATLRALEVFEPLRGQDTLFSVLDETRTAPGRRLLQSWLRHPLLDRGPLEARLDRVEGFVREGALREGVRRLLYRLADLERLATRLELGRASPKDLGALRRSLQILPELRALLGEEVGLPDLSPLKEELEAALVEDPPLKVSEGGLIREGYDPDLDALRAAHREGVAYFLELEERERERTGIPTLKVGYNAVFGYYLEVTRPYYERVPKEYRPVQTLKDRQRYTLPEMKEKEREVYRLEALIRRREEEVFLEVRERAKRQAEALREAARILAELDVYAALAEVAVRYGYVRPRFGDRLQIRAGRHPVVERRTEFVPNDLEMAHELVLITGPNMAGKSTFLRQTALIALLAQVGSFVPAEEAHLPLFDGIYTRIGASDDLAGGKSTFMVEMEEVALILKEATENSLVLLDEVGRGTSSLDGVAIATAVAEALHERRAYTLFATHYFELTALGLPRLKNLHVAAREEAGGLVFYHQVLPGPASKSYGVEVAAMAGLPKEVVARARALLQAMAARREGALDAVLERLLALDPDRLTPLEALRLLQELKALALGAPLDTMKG

MutS-F39A-IAANS = biological target: T2, MutS-F39A-IAANS (Thermus aquaticus (printed as T. …, UniProt Q56215 1-811, F39A;C42A;M88C)); assay: IAANS fluorescence quenching, equilibrium and stopped-flow
T2 sequence: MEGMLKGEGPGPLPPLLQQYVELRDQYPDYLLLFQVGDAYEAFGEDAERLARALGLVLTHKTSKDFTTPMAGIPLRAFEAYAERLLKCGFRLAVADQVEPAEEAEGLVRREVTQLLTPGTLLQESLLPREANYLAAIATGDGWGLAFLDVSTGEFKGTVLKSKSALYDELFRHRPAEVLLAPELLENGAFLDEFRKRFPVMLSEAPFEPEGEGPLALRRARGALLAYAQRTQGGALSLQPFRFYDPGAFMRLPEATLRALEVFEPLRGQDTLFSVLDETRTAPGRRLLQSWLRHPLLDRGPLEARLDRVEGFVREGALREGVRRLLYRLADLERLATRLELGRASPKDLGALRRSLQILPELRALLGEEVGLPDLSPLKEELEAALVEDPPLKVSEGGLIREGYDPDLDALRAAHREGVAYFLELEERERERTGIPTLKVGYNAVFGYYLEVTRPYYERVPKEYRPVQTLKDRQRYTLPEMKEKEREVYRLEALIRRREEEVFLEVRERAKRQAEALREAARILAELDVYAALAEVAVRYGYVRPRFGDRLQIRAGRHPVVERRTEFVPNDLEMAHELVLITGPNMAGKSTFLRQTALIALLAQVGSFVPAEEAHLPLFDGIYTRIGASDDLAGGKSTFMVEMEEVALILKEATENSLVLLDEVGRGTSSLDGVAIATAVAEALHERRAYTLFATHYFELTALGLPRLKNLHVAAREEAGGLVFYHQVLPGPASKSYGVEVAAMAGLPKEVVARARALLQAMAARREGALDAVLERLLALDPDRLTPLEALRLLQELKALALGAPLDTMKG

[2] = biological target: T1, MutS-IAANS (MutS-C42A/M88C); assay: stopped-flow IAANS fluorescence
MutS (wild type) [3] = biological target: T3, MutS (wild type) (Thermus aquaticus (printed as T. …, UniProt Q56215 1-811)); assay: stopped-flow fluorescence anisotropy
T3 sequence: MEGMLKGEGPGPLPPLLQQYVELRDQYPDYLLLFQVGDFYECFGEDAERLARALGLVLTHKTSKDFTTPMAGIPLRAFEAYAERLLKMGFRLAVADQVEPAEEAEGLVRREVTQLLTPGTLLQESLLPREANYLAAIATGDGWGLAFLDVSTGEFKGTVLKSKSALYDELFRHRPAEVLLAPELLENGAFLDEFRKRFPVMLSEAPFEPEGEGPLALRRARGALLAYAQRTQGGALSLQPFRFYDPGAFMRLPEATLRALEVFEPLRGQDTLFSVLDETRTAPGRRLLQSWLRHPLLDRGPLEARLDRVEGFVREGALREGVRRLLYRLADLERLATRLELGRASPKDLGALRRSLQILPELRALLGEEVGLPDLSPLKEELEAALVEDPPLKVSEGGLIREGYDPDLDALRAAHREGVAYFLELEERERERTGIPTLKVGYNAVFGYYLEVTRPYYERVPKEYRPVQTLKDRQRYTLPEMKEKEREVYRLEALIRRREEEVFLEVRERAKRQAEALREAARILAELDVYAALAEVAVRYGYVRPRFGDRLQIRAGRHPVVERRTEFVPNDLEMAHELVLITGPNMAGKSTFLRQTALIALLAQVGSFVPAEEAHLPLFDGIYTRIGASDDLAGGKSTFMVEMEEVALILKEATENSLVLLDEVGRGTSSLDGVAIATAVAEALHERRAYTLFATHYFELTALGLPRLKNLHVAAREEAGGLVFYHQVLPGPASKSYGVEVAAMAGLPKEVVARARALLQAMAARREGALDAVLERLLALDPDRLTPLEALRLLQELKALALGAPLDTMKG

MutS (wild type) [4] = biological target: T3, MutS (wild type); assay: fluorescence anisotropy, equilibrium
MutS-F39A = biological target: T4, MutS-F39A (Thermus aquaticus (printed as T. …, UniProt Q56215 1-811, F39A)); assay: fluorescence anisotropy, equilibrium
T4 sequence: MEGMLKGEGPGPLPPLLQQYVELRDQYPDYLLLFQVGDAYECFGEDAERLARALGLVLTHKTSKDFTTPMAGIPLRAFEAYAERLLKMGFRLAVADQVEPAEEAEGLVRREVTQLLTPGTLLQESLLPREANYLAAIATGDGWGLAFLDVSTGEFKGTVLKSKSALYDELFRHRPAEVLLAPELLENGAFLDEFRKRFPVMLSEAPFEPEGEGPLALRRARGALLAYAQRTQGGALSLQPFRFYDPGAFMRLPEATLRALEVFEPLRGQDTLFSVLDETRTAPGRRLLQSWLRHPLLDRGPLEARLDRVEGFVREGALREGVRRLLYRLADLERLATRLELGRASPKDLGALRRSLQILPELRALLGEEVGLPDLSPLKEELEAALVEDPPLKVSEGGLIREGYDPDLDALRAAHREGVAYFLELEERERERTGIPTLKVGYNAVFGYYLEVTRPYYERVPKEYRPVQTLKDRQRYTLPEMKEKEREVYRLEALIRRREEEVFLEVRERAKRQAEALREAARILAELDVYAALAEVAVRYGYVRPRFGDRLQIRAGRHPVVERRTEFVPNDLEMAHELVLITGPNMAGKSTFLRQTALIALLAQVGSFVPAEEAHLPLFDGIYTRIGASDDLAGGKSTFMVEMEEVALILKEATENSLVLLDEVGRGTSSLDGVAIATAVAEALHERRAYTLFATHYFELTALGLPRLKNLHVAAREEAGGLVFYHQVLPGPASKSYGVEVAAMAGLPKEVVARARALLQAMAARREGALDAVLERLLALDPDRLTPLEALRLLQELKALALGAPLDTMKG

B1: DNA(+T) (dsDNA)
DNA 1: ATGTGAATCAGTATGGTATATATCTGCTGAAGGAAAT
DNA 2: ATTTCCTTCAGCAGATATTACCATACTGATTCACAT
Kd [1]: 22 ± 4 nM
binding result (MutS-F39A-IAANS): no binding
apparent K (half saturation) [2]: 2300 ± 700 nM

B2: DNA(+T)TAMRA (dsDNA)
DNA 1: ATGTGAATCAGTATGGTATATATCTGCTGAAGGAAAT
DNA 2: ATTTCCTTCAGCAGATATTACCATACTGATTCACAT
modifications: 3' amino linker
apparent K (half saturation) (MutS (wild type) [3]): 5 ± 2 µM
Kd (MutS (wild type) [4]): 13 ± 2 nM
binding result (MutS-F39A): no binding
